Assay results reported in the nanobody polyreactivity screen of Harvey et al. (2022).

Experiment: yeast display, Sf9 membrane polyspecificity reagent, FACS + sequencing; frameworks hold sequencing errors
Outline: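 Synthetic nanobody libraries on Saccharomyces cerevisiae BJ5465 were galactose-induced for 36–48 hours, stained 1 hour at 4 °C with 10% biotinylated, detergent-solubilized Sf9 membrane reagent and enriched on streptavidin microbeads. FACS then separated cells into low and high (top ~1%) gates by anti-HA (expression) and streptavidin (reagent binding) fluorescence. Genes were colony-PCR amplified, MiSeq 2 × 250 sequenced and CDR-length filtered. A clone's polyreactivity label is that of its gate of origin.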

QVQLVESGGGLVEAGGSLRLSCAASASISGRYAMGSYRQAPGKERELVAAISWIGGSTYYADSVKGRFTISRDNAKNTVYLQMNSLKPEDTAVYYCNVTIDTRTHPLLVVFYGYDYWGQGTQVTVSS
polyreactivity (PSR sort gate): low polyreactivity

QVQLVESGGGLVQAGGSLRLSCAASGLTFANYAMGWYRQAPGKERELVAAISTWSGGSTYYADSVKGRFTISRDNAKNTVYLQMNSLKPEDTAVYYCAARRYSRGRLPYDYGGQGTQVTVSS
polyreactivity (PSR sort gate): high polyreactivity

QFQLVESGGGLVQAGGSLRLSCAASGITFRDYAMGWYRQAPGKERELVAAISTRGVRTYYADSVKGRFTISRDNAKNTVYLQMNSLKPEDTAVYYCAARSVTYWWVGYEFYYWGQGTQVTVSS
polyreactivity (PSR sort gate): high polyreactivity

QVQLVESGGGLVQAGGSLPLSSAASGLIFSWYAMGWYRQAPAKDSELVAAIDQSGDSTYYADSVKGRFTISRDNAKNTVYLQMNSLKPEDTAVYYCAAQSYDYWYDYDYWGQGTQVTVSS
polyreactivity (PSR sort gate): high polyreactivity

QVQLVESGGGLVQAGGSLRLTCAASGRIFSSYAMGWYRQAPGKERELVAAITGRDGSTYYADSVKGRFTISRDNAKNTVYLQMNSLKPEETAVYYCAASRFYFPLTFGGYPKLASYDYWGQGTQVTVSS
polyreactivity (PSR sort gate): low polyreactivity

QVQLVESGGGLVQAGGSLRLSCAASGRTFKYYAMGWYRQAPGKERELVATINYSGGGTYYADSVKRRFTSSRDNAKNTVYLQMNSLKPEDTAVYYCAATRYSFGPRRVDYWGQGTQVTVSS
polyreactivity (PSR sort gate): high polyreactivity

QVQLVESGGVLVQAGGRLRLSCAASVFGRYAMGWYRQAPGKEREMVARISSSCGSTHYADSVKGRFTISRDNAKNTVYLEMNSLKPEDTAVYYCAARSYDTYWWYGYWGQGTQVTVSS
polyreactivity (PSR sort gate): high polyreactivity

QVQLVESRGVLVQAGGSIRLSCAASGFSIDYYAMGWYRPAPGKERELVAAITTSGGRTYYADSVKGRFTIARDYAKNTVYLQMNSLKPEDTAVYYCAVVTWIYGTRFNYWGQGTQVTVSS
polyreactivity (PSR sort gate): high polyreactivity

QDHLVESGGGLVQAGGSLRLSCSASGRTFGTYAMGWYRQAPGKERELVATISSGGSTYYADSVKGRFTISRDNAKNTGYLQMNSLKPEDTAVYYCADYRYFRPGDYWGQGTQVTVSS
polyreactivity (PSR sort gate): low polyreactivity

QVQLVESGGGLVQAGGSLRLSCAASGRTYSYNAMGWYRQEPGKERELVAGITYTGGRTYYADSVKGRFTISRDNAKNTVYLQMNSLKPEDTAVYYCAVGEYGHWLYRYEYWGQGTQVTVSS
polyreactivity (PSR sort gate): high polyreactivity

QVQLVESGGGLFQAGGSLRLSCAASGITFTRYAMGWYRQAPGKEREFVAAIRRSGGNTYYADSVKGRFTISRDNAKNTVYLQMNSLNPEDTAVYYCAASLRKTSPTRLVDYWGQGTQVTVSS
polyreactivity (PSR sort gate): low polyreactivity

QVQLVESGGGLVQAGGSLRLSCAASGSIFKRNDMGWYRQAPGKERELVAAITWSGGSTYYADSVKGRFTISRDNAKNTVYLQMNSLKPEDTAVYYCNAARDDWYIIKYDYWGQGTQVTVSS
polyreactivity (PSR sort gate): low polyreactivity

QVQLVESGAGLVQAGGSLRLSCAASGSTFYGYGMGWYRQAPGKERELVAAITGSGDTTYYADSVKGRFTISRDNAKNTVYLQMNSLKPEDTAVYYCNARWHAEYDYWGQGTQVTVSS
polyreactivity (PSR sort gate): low polyreactivity

QVQLVESGGGLVQAGGSLRLSCAASGRTFFLYAMGWYRQAPGKESEFVATISYGGGSTYYADSVKGRFTISRDNAKNTVYLQMNSLKPEDTAVYYCNALNTSQYAEGTSDYDGNMGNWGQCTQVTVSS
polyreactivity (PSR sort gate): low polyreactivity

QVQLVESGGGLVQAGGSLRLSCAASGFIFIQNDMGWYRQAPGKERAFFASISKDGGRTYYADSVKGRFTISRDNAKNTVYLQMNSLKPEDTAVYYCNTYPRGNWGNFVEQDYDYWGQGTQVTVSS
polyreactivity (PSR sort gate): low polyreactivity

QVQLVESGGGLVQAGGSLRLSCAASGSTFGRYAMGWYGQAPGKERELVAAISASGASTYYADSVKGRFTISRDNAKNTVYLQMNSLKPEDTAVYYSNAPYYFAGKPWGSWRYGYWGQGTQVTVSS
polyreactivity (PSR sort gate): low polyreactivity

QVQLVESGGGLVQAGGSLRLSCAASGLTFGRNAMGWYRQAPWKERELVAAISRSGGRTSYADSVKGRFTISRDNAKNTVYLQMNSLKPEDTAVYYCAARSDVYTHDYWGQGTQVTVSS
polyreactivity (PSR sort gate): high polyreactivity

QVQLVESGGGLVQAGGSLRLSCAASGFTFRFYAMGWYRQAPGKERELVAGISSSGGTTYYADSVKGRFTISRDNAKNTVYLQMNSLKPEDTAVYYCNRRFLPAEQYTKKYYYWGQGTQVTVSS
polyreactivity (PSR sort gate): high polyreactivity

QVQLVESGGCLVQAGGSLRLSCAASGSIFSRYDMGWYRQAPGKEREFVPRITQRGGSTYYADSVKGRFTISRDNAKNTVYLQMNTVKPEDTAVYYCYADHYRRQLAEDYWGQGTQVTVSS
polyreactivity (PSR sort gate): low polyreactivity

QVQHVESGGGLVQAGGSLRLSCAASGRTFGFNAMGWYRQATGKERELVAAITYSGGRTYYADSVKGRFTISRDNAKNTVYLHMNSLKPEDTAVYFCAALTRRVKKYDYLGQGTQVTVSS
polyreactivity (PSR sort gate): high polyreactivity

QVQLVESGGGLVQAGGSLRLRCAASGRTLYRYAMGWYRQAPGKEREFVAAISSSGGSTYYADSVKGSFTISRDNAKNTVYLQMNSLKPEDTAVYYCAARYGSSYAWSNYWGQGTQVTVSS
polyreactivity (PSR sort gate): high polyreactivity

QVQLVESGGCLVQAGGSLRLSSPASGITFPDYDMGWYRQAPGKERELVAAITYRSGSTYYADSVKGRFTISRDNAKNTVYFQMNSLKPEDTAVYYCAAKRFLLRYYTKQYNYWGQGTQVTVSS
polyreactivity (PSR sort gate): high polyreactivity

QVQLVESGGGLVQAGGSLRLSSAASGRTFYSNAMGWSRQAPGKERELVAAITSTDDSTYYADSVKGRFTISRDNAKNTVYLQMNSLKPEDTAVYYCNTDGLIAIRCVWWVEYDYWGQGTQVTVSS
polyreactivity (PSR sort gate): low polyreactivity

QVQHVESGGGLVQAGGSLRLSCAASGFIFRRNVMGWYRQAPGKERELVAAISNSGGSTYYADSVKGRFTISRDNAKNTVYLQMNSLKPEDTAVYYCAAVYSYWGRYFEYGYWGQGTKVTVSS
polyreactivity (PSR sort gate): high polyreactivity

QVQLVESGGGLVQAGGSLRLSCAASGSTFTWNVMGWYRQAPAKERELVASITSGDSTYADSVKGRFTISRDNAKNTVYLQMNSLKPEDTAVYYCNVGYDQEKYGYWGQGTQVTVSS
polyreactivity (PSR sort gate): low polyreactivity

QVQLVESGGGLVQAGGSLRLSCAASGRTFVFYAMGWYIQAPGKERELVASISDGDRTNYADSVKGRFTISRDNAKNTVYLQMNSLKPEDTAVYYCAADREFWWEVVYTYEYYYWGQGTQVTVSS
polyreactivity (PSR sort gate): low polyreactivity

QVQLVESGGGLVQAGGSLRLSCAASGRTFNNYAMGWYRQAPGKERELVASIRKNGGSTYYADSVKGRFTISRDNAKNTVYLQMNSLKPEDTAVYYCGARYWGISRIFPSKYDYWGQGTQVTVSS
polyreactivity (PSR sort gate): high polyreactivity

QVQLVESGGGLVQAGGSLRLSCAASGFIFGYKARGWYRQAPGKERELVAAISSSGGSTYYADSVKGRFTISRDNAKNTVYLQMKSLKPEDTAVYYCAARPVALRKYYYWGQVTQVTVSS
polyreactivity (PSR sort gate): low polyreactivity

QVQLVEAGGGLVQAGGSLRLSCAACGSIFISYAMGWYRQAPGKERELVAAISSGGSTNYADSVKGRFTISRDNAKNTVYLQMNSLTPEDTAVYYCAADGWLWSFTGDGWWFDYWGQGTQVTVSS
polyreactivity (PSR sort gate): low polyreactivity

QVQLVESGGGLVQAGGSLRLSCAASGRIFYGYTMGWYRQAPGKERELVAAITWSGGSTHYADSVKGRFTISRDNAKNTVYLQMNSLKPEDTAVYYCNARRRSVYRGLYDYWGQGTQVTVSS
polyreactivity (PSR sort gate): high polyreactivity

QVQLVESGGGLVQAGGSLRLSCAASGSTFGVYAMGWYRQAPGKERELVAAISYTGGSTYYADSVKGRFTISRDNAKNTVYLQMNSLKPEDTAVYYCATRSRDQYSVSYRLDYWGQGTQVTVSS
polyreactivity (PSR sort gate): low polyreactivity
